Target: VHL, P40337-3

Row | effect of a mutation on the interaction | Substance
1 | disrupting interaction | Diacylglycerol kinase iota (Homo sapiens), O75912 P147A;P895A
2 | disrupting interaction | Diacylglycerol kinase iota (Homo sapiens), O75912 P895A

— IntAct's records for PubMed 17986458
